Laboratory results published in paper PMC10250209, “UV-DDB stimulates the activity of SMUG1 during base excision repair of 5-hydroxymethyl-2'-deoxyuridine moieties”.

Target: UV-DDB (DDB1-DDB2 heterodimer);SMUG1 WT (UniProt Q16531+Q92466+Q53HV7)
Assay: single-molecule DNA tightrope
Details: both Qdot-labeled; 91.1% of co-localized particles stationary and persistent; tetrahydrofuran abasic site every 2 kb; EMSA: 8 nM DNA, 20 mM HEPES pH 7.5, 150 mM NaCl, 2 mM DTT (5 mM for SMUG1), 5% glycerol, 0.5 mg/ml BSA (0.5 mg/l [sic] for SMUG1), +/- 1.5 mM MgCl2, RT 20 min

Chain of UV-DDB (DDB1-DDB2 heterodimer);SMUG1 WT (Q16531 whole entry, chain 1 of 3): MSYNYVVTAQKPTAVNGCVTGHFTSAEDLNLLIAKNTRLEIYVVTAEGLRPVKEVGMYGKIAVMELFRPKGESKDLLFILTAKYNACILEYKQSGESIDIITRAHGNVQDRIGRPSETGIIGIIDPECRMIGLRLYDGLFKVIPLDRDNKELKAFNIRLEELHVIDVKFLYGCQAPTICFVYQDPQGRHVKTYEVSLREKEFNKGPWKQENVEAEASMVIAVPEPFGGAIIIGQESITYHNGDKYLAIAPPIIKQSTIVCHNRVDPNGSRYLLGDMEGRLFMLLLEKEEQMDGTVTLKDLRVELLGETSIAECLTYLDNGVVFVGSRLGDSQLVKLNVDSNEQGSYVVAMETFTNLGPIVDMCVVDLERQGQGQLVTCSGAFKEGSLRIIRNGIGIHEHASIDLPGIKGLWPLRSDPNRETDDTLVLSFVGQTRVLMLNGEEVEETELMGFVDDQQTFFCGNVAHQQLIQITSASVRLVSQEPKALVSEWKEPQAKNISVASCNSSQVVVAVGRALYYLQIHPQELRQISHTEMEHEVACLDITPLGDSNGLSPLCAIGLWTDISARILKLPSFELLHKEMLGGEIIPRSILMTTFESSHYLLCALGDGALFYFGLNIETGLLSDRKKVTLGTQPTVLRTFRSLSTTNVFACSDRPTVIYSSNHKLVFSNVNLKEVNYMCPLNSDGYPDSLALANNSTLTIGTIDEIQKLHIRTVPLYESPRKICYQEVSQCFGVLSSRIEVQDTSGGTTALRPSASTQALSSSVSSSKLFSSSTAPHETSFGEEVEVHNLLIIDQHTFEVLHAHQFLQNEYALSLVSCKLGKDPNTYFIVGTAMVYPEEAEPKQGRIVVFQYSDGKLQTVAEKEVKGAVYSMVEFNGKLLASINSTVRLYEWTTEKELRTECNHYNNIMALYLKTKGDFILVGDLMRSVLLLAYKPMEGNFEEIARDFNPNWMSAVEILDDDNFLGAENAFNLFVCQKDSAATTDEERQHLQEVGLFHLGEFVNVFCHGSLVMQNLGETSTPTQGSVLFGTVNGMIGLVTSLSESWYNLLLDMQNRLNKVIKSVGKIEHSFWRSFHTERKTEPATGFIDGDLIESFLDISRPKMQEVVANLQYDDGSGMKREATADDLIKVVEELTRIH
Chain of UV-DDB (DDB1-DDB2 heterodimer);SMUG1 WT (Q92466 whole entry, chain 2 of 3): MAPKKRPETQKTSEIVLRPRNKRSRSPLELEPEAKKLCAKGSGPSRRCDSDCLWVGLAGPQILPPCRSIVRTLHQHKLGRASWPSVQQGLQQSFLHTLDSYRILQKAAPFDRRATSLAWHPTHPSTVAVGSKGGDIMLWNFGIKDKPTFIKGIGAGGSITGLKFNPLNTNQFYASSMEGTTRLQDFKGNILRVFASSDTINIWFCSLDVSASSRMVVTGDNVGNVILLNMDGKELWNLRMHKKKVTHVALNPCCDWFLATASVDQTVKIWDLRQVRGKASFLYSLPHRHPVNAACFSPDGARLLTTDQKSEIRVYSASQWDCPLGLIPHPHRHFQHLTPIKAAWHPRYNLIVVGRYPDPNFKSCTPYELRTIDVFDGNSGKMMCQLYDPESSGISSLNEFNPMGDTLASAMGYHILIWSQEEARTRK
Chain of UV-DDB (DDB1-DDB2 heterodimer);SMUG1 WT (Q53HV7 whole entry, chain 3 of 3): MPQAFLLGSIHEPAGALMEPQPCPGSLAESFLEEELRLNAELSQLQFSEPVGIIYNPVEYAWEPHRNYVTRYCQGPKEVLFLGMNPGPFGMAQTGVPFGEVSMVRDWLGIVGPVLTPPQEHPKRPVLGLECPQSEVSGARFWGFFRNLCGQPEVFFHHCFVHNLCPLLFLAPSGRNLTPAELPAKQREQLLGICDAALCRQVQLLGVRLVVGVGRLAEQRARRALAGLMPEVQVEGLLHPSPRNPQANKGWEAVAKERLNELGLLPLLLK

Work on “DNA tightrope with one THF site every 2 kb” yielded a binding (% of particles co-localized) of 15.6.
